Source: patent US20240279321A1 (THERINI BIO, published 2024)
Where a chain is given by its changes, count along the chain named. Blank lines part the entries; values can stand above or below the binder they belong to. Where no end group is shown, it is not given here. The star is where a group is joined. Biotin = O=C1N[C@H]2[C@H](CS[C@H]2CCCCC(=O)*)N1

Columns and labels:
[1] = target: T1, Human fibrin γ377-395 (Human P2 peptide) (human); assay: BLI (ForteBio Octet): N-term biotinylated fibrin P2G peptide on SA tip, IgG in solution 100 nM (avid)
T1 construct: In the crystal models, residues 410-421 of chain A are ordered; also called fibrin P2 peptide; fibrin P2 gamma peptide
T1 peptide: Biotin-YSMKKTTMKIIPFNRLTIG

[2] = target: T1, Human fibrin γ377-395 (Human P2 peptide); assay: BLI (Octet): N-term biotinylated P2G peptide on SA sensor, 100nM Fab in solution
[3] = target: T1, Human fibrin γ377-395 (Human P2 peptide); assay: BLI (ForteBio Octet): N-term biotinylated fibrin P2G peptide on SA tip, IgG in solution 100 nM (avid) [Cont.]
[4] = target: T1, Human fibrin γ377-395 (Human P2 peptide); assay: BLI (ForteBio Octet): N-term biotinylated fibrin P2G peptide on SA tip, Fab in solution 100 nM (monovalent)
[5] = target: T1, Human fibrin γ377-395 (Human P2 peptide); assay: BLI (ForteBio Octet): N-term biotinylated fibrin P2G peptide on SA tip, IgG in solution 100 nM (avid)
[6] = target: T1, Human fibrin γ377-395 (Human P2 peptide); assay: BLI (Octet): N-term biotinylated P2G peptide on SA sensor, 100nM Fab in solution; the same panel stands twice in the middle row
[7] = target: T1, Human fibrin γ377-395 (Human P2 peptide); assay: BLI (Octet RED384), Fab on P2 peptide; on-rate phase 0-300 s, off-rate phase 300-600 s
[8] = target: T2, Ext NP2 (Rabbit); assay: ELISA of ADI-60143 IgG on Ext NP2 peptide (rabbit), RFU readout; drawn table, column Rabbit
T2 construct: also called Rabbit P2 peptide extended
T2 peptide: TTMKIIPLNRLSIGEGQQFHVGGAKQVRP

[9] = target: T1, Human fibrin γ377-395 (Human P2 peptide); assay: ELISA (N-P2 ELISA), RFU readout
[10] = target: T3, Rat P2 peptide (rat); assay: ELISA of ADI-60143 IgG on NP2 peptide (rat), RFU readout; drawn table, column Rat
T3 construct: also called Mouse/Rat P2 peptide
T3 peptide: YSMKETTMKIIPFNRLSIG

[11] = target: T4, Rat P2 peptide extended (rat); assay: ELISA of ADI-60143 IgG on Ext NP2 peptide (rat), RFU readout; drawn table, column Rat; the curve has no upper plateau at 500 nM
T4 construct: also called rat extended P2 peptide
T4 peptide: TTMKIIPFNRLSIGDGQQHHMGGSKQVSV

[12] = target: T1, Human fibrin γ377-395 (Human P2 peptide); assay: ELISA of ADI-60143 IgG on NP2 peptide (human), RFU readout; drawn table, column Human
[13] = target: T5, NP2 (Rabbit) (not fully specified (N-terminus)); assay: ELISA of ADI-60143 IgG on NP2 peptide (rabbit), RFU readout; drawn table, column Rabbit
T5 construct: 'N-P2' elsewhere in the drawings stands for the N-term biotinylated P2 peptide; also called Rabbit P2 peptide; NP2 Fab (Rabbit) in the legend box of panel A
T5 peptide: YSMKKTTMKIIPLNRLSIG

[14] = target: T6, Human P2 peptide extended (human); assay: ELISA of ADI-60143 IgG on Ext NP2 peptide (human), RFU readout; drawn table, column Human
T6 construct: also called human extended P2 peptide
T6 peptide: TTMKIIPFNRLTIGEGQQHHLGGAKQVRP

[15] = target: T1, Human fibrin γ377-395 (Human P2 peptide); assay: ELISA of ADI-60143 Fab on NP2 peptide (human), RFU readout; drawn table, column Human
[16] = target: T5, NP2 (Rabbit); assay: ELISA of ADI-60143 Fab on NP2 peptide (rabbit), RFU readout; drawn table, column Rabbit
[17] = target: T3, Rat P2 peptide; assay: ELISA of ADI-60143 Fab on NP2 peptide (rat), RFU readout; drawn table, column Rat
[18] = target: T1, Human fibrin γ377-395 (Human P2 peptide); assay: BLI (ForteBio Octet): N-term biotinylated fibrin P2G peptide on SA tip, Fab in solution 100 nM (monovalent) [Cont.]
[19] = target: T1, Human fibrin γ377-395 (Human P2 peptide); assay: ELISA (N-P2 ELISA), RFU readout; C is the duplicate of clone 61278
[20] = target: T1, Human fibrin γ377-395 (Human P2 peptide); assay: BLI (ForteBio Octet): N-term biotinylated fibrin P2G peptide on SA tip, Fab in solution 100 nM (monovalent)

binding result [1]: binds
B1: 60140 (IgG) (antibody, V domains shown)
VH: QVQLVQSGAEVKKPGASVKVSCKASGYTFTSVWIHWVRQAPGQGLEWIGLIDPSDSYTNYNQKFRGRATLTVDTSTSTAYMELSSLRSEDTAVYYCASSRPTGGWGQGTTVTVSS
VL: DIVMTQSPLSLPVTPGEPASISCRSSKSLLHSSGITYLSWYLQKPGQSPQLLIYQMSNLASGVPDRFSGSGSGTDFTLKISRVEAEDVGVYYCAQNLELPLTFGGGTKVEIKR

Kd [2]: 1300 nM
B2: 56666 (parent) (Fab) (Fab, V domains shown)
VH: B1 VH with V32Y, I48M, A68V, L70M, R100D
VL: B1 VL
notes: also called ADI-56666; clone 56666 Fab

binding result [3]: binds
B3: 61273 (IgG) (antibody, V domains shown)
VH: B1 VH with V32T, I48M, A68V, L70M, R100K
VL: B1 VL with L38I
notes: also called ADI-61273; clone 61273 IgG

binding result [1]: binds
B4: 61275 (IgG) (antibody, V domains shown)
VH: B1 VH with V32S, I48M, A68V, L70M, R100A
VL: B1 VL with N96A

binding result [4]: binds
B5: 61275 (Fab) (Fab, V domains shown)
VH: B1 VH with V32S, I48M, A68V, L70M, R100A
VL: B1 VL with N96A

binding result [5]: binds
B6: ADI-61283 (IgG) (antibody, V domains shown)
VH: B1 VH with V32A, I48M, A68V, L70M, R100D, T102Y
VL: B1 VL with L59K, N96S

binding result [3]: binds
B7: 61255 (IgG) (antibody, V domains shown)
VH: B1 VH with V32Y, R100D, P101A
VL: B1 VL with I35H, S48P, N96A
notes: also called clone 61255 IgG

Kd [6]: 38 nM
Kd [7]: 104 nM
B8: Fab of antibody clone 61278 (ADI-61278 Fab) (Fab, V domains shown, not shown: a dimerising Fc or GST)
VH: B1 VH with V32Y, I48M, A68V, L70M, R100D, P101A
VL: B1 VL with N96A
notes: The crystal model holds chain H residues 1-126 and 133-214 and chain L residues 1-213; also called Fab ADI61278

EC50 [8]: 5.97 nM
EC50 [9]: 0.08 nM
EC50 [10]: 0.094 nM
EC50 [11]: 139 nM
EC50 [12]: 0.11 nM
EC50 [13]: 0.082 nM
EC50 [14]: 7.25 nM
B9: antibody clone 60143 (full length ADI-60143 IgG) (antibody, V domains shown)
VH: B1 VH with V32T, R100K
VL: B1 VL

EC50 [15]: 0.34 nM
Kd [6]: 23 nM
Kd [7]: 70 nM
EC50 [16]: 0.67 nM
EC50 [17]: 1.78 nM
B10: Fab of antibody clone 60143 (ADI-60143 Fab) (Fab, V domains shown)
VH: B1 VH with V32T, R100K
VL: B1 VL
notes: The crystal model holds chain H residues 1-127 and 134-214 and chain L residues 1-213; not shown: The papain cleavage limit is not stat

binding result [18]: binds
B11: 61255 (Fab) (Fab, V domains shown)
VH: B1 VH with V32Y, R100D, P101A
VL: B1 VL with I35H, S48P, N96A
notes: also called clone 61255 Fab

binding result [1]: binds
B12: 61285 (IgG) (antibody, V domains shown)
VH: B1 VH with V32S, I48M, A68V, L70M, R100D, T102H
VL: B1 VL with N96S

binding result [18]: binds
B13: 61273 (Fab) (Fab, V domains shown)
VH: B1 VH with V32T, I48M, A68V, L70M, R100K
VL: B1 VL with L38I
notes: also called ADI-61273; clone 61273 Fab

EC50 [9]: 0.13 nM
EC50 [19]: 0.11 nM
B14: antibody clone 61278 (ADI-61278 IgG) (antibody, V domains shown)
VH: B1 VH with V32Y, I48M, A68V, L70M, R100D, P101A
VL: B1 VL with N96A

binding result [4]: binds
B15: 61285 (Fab) (Fab, V domains shown)
VH: B1 VH with V32S, I48M, A68V, L70M, R100D, T102H
VL: B1 VL with N96S

binding result [4]: binds
B16: 60140 (Fab) (Fab, V domains shown)
VH: B1 VH
VL: B1 VL

binding result [3]: binds
B17: 60183 (IgG) (antibody, V domains shown)
VH: B1 VH with V32T, I48M, A68V, L70M, R100K
VL: B1 VL
notes: also called ADI-60183; clone 60183 IgG

binding result [18]: binds
B18: 60183 (Fab) (Fab, V domains shown)
VH: B1 VH with V32T, I48M, A68V, L70M, R100K
VL: B1 VL
notes: also called ADI-60183; clone 60183 Fab

Kd [2]: 264 nM
B19: 56657 (parent) (Fab) (Fab, V domains shown)
VH: B1 VH with V32Y, R100D
VL: B1 VL
notes: also called ADI-56657; clone 56657 Fab

binding result [20]: binds
B20: ADI-61283 (Fab) (Fab, V domains shown)
VH: B1 VH with V32A, I48M, A68V, L70M, R100D, T102Y
VL: B1 VL with L59K, N96S
